We go through 35 molecules from patent US20160122389A1 (PHARIS BIOTEC, published 2016).

Experiment [1] deals with T1, CXC chemokine receptor 4 (CXCR4) (human, UniProt P61073 1-352). As to the kind of experiment: cell-based or functional assay.
Experiment [2] concerns the target T1, CXC chemokine receptor 4 (CXCR4). The experiment in a line: cell-based or functional assay. The source holds these as a separate data set.
Experiment [3] addresses T2, eGFP-CXCR4 (UniProt P61073 1-352).
T2 construct: whole, on cells; not shown: EGFP part of the fusion
As to the kind of experiment: competition with 100 nM CXCL12-TexasRed on cells expressing eGFP-CXCR4, real-time fluorescence. The protocol: Experiments were performed using cells stably expressing eGFP-CXCR4, suspended in HEPES-bovine serum albumin buffer (10 mM HEPES, 137.5 mM NaCl, 1.25 mM MgCl₂, 1.25 mM CaCl₂, 6 mM KCl, 10 mM glucose, 0.4 mM NaH₂PO₄, 0.1% bovine serum albumin (w/v), pH 7.4) (typically at 10⁶ cells/mL). Time-based recordings of the fluorescence emitted at 510 nm (excitation at 470 nm) were performed at 21° C. using a spectrofluorimeter and sampled every 0.3 s. Fluorescence binding measurements were initiated by adding at 30 s 100 nM of CXCL12-TR to the 1 mL cell suspension. For competition experiments, EGFP-CXCR4 expressing cells were preincubated for 10 min in the absence or presence of various concentrations of unlabelled drugs. Then, CXCL12-TR (100 nM) was added and fluorescence was recorded until equilibrium was reached (300 s). Data were analyzed using Kaleidagraph 3.08 software (Synergy Software, Reading, Pa., USA).

No end group written: not given here.

T1 sequence (P61073 whole entry): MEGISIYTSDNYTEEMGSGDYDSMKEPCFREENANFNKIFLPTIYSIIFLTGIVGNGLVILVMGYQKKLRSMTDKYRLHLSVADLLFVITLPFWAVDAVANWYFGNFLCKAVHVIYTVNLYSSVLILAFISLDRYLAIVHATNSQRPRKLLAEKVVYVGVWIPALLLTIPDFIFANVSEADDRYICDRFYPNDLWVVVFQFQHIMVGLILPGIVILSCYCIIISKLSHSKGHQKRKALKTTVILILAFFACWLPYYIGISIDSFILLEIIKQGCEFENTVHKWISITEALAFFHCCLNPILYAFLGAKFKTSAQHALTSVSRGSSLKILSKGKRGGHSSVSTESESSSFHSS
T2 sequence (P61073 whole entry, the tested form may be a part): as the sequence (P61073 whole entry) above

For LVRYAKKV [408-415-T412A], in experiment [1], the “IC50 (µM), blocking of X4 tropic HIV-1 NL4-3 infection” value (shortened to “IC50 (µM), blocking”) is 11.2 µM.

In the case of IVRWTCKVPQVS [408I-419 WC02], in experiment [1], the “IC50 (µM), blocking” value was found to be 2.1 µM.

As for LVRYTKKVPQVSTPT [408-422], the “IC50 (µM), blocking” value in experiment [1] was 13.4 µM.

As to LVRYTKKVPQVSTP [408-421], the “IC50 (µM), blocking” value in experiment [1] worked out at 14 µM.

Take IVRWSKKVPCVS (also: homodimer, disulfide between Cys10 of two monomers) [408I-419 WSC02 x2]: the “IC50 (µM), blocking” value in experiment [1] turned out to be 0.12 µM.

With IVRYTKKVPQCS [408I-419 V418C], the “IC50 (µM), blocking” value in experiment [1] amounted to 3.69 µM.

Regarding IVKYTKKVPQVS [408I-419 R410K], in experiment [1], the “IC50 (µM), blocking” value was above 100 µM.

Turning to IVRSTKKVPQVS [408I-419 Y411S], in experiment [1], the “IC50 (µM), blocking” value is above 100 µM.

On to IVRWCKKVPQVS [408I-419 WC03], for which the “IC50 (µM), blocking” value in experiment [1] was found to be 1.82 µM.

Take IVRWTKKVPQVS [408I-419 Y411W]: the “IC50 (µM), blocking” value in experiment [1] was determined as 1.54 µM.

With IVRYSKKVPQVS [408I-419 T412S], the “IC50 (µM), blocking” value in experiment [1] was found to be 2.09 µM.

IVHYTKKVPQVS [408I-419 R410H]: the “IC50 (µM), blocking” value in experiment [1] was above 100 µM.

As to IVRWTKKVPQVC (also: homodimer, disulfide between Cys of the two monomers) [408I-419 WC01_x2], in experiment [1], the “IC50 (µM), blocking” value was 0.4 µM.

Turning to LVRYTKKVPQ [408-417], the “IC50 (µM), blocking” value in experiment [1] is 19.8 µM.

With IVRYTKCVPQVS [408I-419 K414C], in experiment [1], the “IC50 (µM), blocking” value came to 5.87 µM.

As to IVRWSKKVPCVS [408I-419 WSC02], the “IC50 (µM), blocking” value in experiment [1] amounted to 0.31 µM.

With IVRWTCKVPQVS (also: homodimer, disulfide between Cys of the two monomers) [408I-419 WC02 x2], the “IC50 (µM), blocking” value in experiment [1] stood at 0.32 µM.

As for IVRWCKKVPQVS (also: homodimer, disulfide between Cys of the two monomers) [408I-419 WC03 x2], the “IC50 (µM), blocking” value in experiment [1] was 0.6 µM.

IVRYTKCVPQVS (also: homodimer, disulfide between Cys of the two monomers) [408I-419 K414C x2]: in experiment [1], the “IC50 (µM), blocking” value was 1.05 µM.

B1: peptide of SEQ ID NO 16 (408-423) (peptide)
peptide: LVRYTKKVPQVSTPTL
notes: Chemically synthesized fragment of human serum albumin (HSA)
Broadly, the Ki is the dissociation constant of the complex between target and ligand, obtained from inhibition or displacement. Regarding B1, the “mean 50% inhibitory concentration (IC50) of infection by X4 HIV-1 strains” value in experiment [2] was found to be 15.8 µg/mL. Besides, the Ki in experiment [3] is 3000 nM. Further, in experiment [1], the “IC50 (µM), blocking” value turned out to be 8.63 µM.

As to LLVRYTKKVPQVS [407-419], the “IC50 (µM), blocking” value in experiment [1] came out at 11.1 µM.

For LVRYTKKVPQVS [408-419], in experiment [1], the “IC50 (µM), blocking” value amounted to 5.49 µM.

With LVRYTKKVPQVST [408-420], the “IC50 (µM), blocking” value in experiment [1] is 15.3 µM.

Take IVRWSKKVPQCS [408I-419 WSC01]: the “IC50 (µM), blocking” value in experiment [1] was 0.87 µM.

With IVRFTKKVPQVS [408I-419 Y411F], the “IC50 (µM), blocking” value in experiment [1] was determined as 3.89 µM.

For the molecule IVRYSKKVPQC [408I-418 SC], in experiment [1], the “IC50 (µM), blocking” value came out at 2.94 µM.

For IVRWTKKVPQVC [408I-419 WC01], in experiment [1], the “IC50 (µM), blocking” value amounted to 1.65 µM.

As for IVRYSKKVPQC (also: homodimer, disulfide between Cys of the two monomers) [408I-418 SC x2], the “IC50 (µM), blocking” value in experiment [1] is 0.39 µM.

Regarding LARYTKKV [408-415-V409A], the “IC50 (µM), blocking” value in experiment [1] stood at 32.9 µM.

As to LVRYTKKVPQV [408-418], the “IC50 (µM), blocking” value in experiment [1] was found to be 26.8 µM.

Consider IVRYTKKVPQCS (also: homodimer, disulfide between Cys of the two monomers) [408I-419 V418C x2], for which the “IC50 (µM), blocking” value in experiment [1] turned out to be 0.46 µM.

For the molecule IVRWSKKVPQCS (also: homodimer, disulfide between Cys of the two monomers) [408I-419 WSC01 x2], in experiment [1], the “IC50 (µM), blocking” value amounted to 0.18 µM.

In the case of LVRYTKKV [408-415], the “IC50 (µM), blocking” value in experiment [1] is 25.7 µM.

As for IVRYTKKVPQVS [408I-419], the “IC50 (µM), blocking” value in experiment [1] was found to be 2.48 µM.

Turning to IVRWSKKVCQVS [408I-419 WSC03], the “IC50 (µM), blocking” value in experiment [1] worked out at 1.51 µM.
